*1 amine or outer side, *2 acyl side, *3 side chain or, on linkers, in order; H or OH if unused. Bridges are numbered along the chain shown (N, C = ends). Primed or numbered codes have the meaning given here. Where no end group is shown, it is not given here. [ ]: non-standard residue; d: D form. 4‑Aminomethyl‑phenylacetyl = 4-aminomethyl-phenylacetyl unit, its amine closes the lactam, O=C(Cc1ccc(CN[*:1])cc1)[*:2]; 1,3‑dibromopropan‑2‑one″ = linker forming 1,3-dithio-propan-2-one bridge -SCH2C(=O)CH2S- between two Cys; (N3)‑K = lysine with the alpha-amine converted to an azide, [N-]=[N+]=N[C@@H](CCCCN[*:3])C(=O)[*:2]; bLys = L-beta-lysine, (3S)-3,6-diaminohexanoic acid, O=C(C[C@H](CCCN[*:3])N[*:1])[*:2]; 2Nal = N[C@@H](Cc1ccc2ccccc2c1)C(=O)O; AEF = NCCOc1ccc(C[C@H](N)C(=O)O)cc1; 3Pal = N[C@@H](Cc1cccnc1)C(=O)O; αMeL = CC(C)C[C@](C)(N)C(=O)O; CH2COCH2 = O=C(C[*:1])C[*:2]; 3Amb = NCc1cccc(C(=O)O)c1; NMeS = CN[C@@H](CO)C(=O)O; dDab = NCC[C@@H](N)C(=O)O; Pra = C#CC[C@H](N)C(=O)O; Dab = NCC[C@H](N)C(=O)O; βAla = NCCC(=O)O
Tests used:
[1] = biological target: T1, human IL-23R endogenously expressed on DB cells (human, UniProt Q5VWK5 24-629); assay: cell-based or functional assay
T1 sequence (looked up): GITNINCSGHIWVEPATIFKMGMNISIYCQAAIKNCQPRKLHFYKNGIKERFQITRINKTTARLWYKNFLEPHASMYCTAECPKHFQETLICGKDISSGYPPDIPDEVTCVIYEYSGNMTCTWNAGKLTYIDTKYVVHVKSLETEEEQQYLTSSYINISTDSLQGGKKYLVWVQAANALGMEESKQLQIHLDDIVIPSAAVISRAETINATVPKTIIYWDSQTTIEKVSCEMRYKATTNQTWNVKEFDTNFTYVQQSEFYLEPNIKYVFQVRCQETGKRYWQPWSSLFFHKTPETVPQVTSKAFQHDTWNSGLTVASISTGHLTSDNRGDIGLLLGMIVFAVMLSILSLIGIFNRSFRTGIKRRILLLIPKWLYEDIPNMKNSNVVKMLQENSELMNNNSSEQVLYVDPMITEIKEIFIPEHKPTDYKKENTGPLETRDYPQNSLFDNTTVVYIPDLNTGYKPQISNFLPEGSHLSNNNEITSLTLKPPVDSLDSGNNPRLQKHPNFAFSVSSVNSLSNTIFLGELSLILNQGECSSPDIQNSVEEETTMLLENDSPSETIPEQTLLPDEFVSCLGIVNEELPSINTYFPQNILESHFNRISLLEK

[2] = biological target: T2, Nluc-IL23R fusion protein (human, UniProt Q5VWK5 22-629); assay: BRET competition vs TAMRA-labelled peptide, Nluc-IL23R membranes
T2 construct: range 22-629; Stably expressed in HEK293 cells; also called hIL-23R; human IL-23R; not shown: Nanoluc protein (N1371, Promega) at the N-terminus, after a secretion signal
T2 sequence (looked up): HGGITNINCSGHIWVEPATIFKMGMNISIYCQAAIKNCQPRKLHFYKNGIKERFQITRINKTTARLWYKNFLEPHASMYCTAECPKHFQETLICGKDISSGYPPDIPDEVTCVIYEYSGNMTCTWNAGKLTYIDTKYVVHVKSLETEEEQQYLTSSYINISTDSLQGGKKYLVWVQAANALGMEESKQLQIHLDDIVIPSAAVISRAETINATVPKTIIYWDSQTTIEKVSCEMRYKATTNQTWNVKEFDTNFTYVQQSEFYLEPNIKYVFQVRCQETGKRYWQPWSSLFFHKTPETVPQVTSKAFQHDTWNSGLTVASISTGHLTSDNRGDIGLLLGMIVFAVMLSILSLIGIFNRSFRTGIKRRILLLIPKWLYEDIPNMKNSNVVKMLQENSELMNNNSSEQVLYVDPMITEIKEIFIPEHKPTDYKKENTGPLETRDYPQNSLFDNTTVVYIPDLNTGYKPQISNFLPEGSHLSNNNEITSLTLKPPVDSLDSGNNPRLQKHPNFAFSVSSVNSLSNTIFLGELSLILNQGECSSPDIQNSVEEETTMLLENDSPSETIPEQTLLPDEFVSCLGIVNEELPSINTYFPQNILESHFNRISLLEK

B1: Compound 1 (peptide)
peptide: [dK]TVWQE[AEF][2Nal][αMeL]E[Dab][3Pal]-NH2
modifications: lactam 1-10; lactam (positions not given here); not fully specified (bridges); printed as [{d}K](1c)(6c)^{†}TVWQE(6c)[Y(2-aminoethoxy)][2-Nal][2-Me-Leu]E(1c)[Dab][3-(3-Pyridyl)-Ala]-[NH2]
- hIL-23 (pSTAT3) antagonist % inhibition [1]: 102%
- hIL-23 (pSTAT3) antagonist IC50 [1]: 0.23 nM
- % displacement [2]: 103%

B2: Compound 110 (peptide)
peptide: K[βAla]WQEW[2Nal][αMeL]E[Dab][3Pal]-NHMe
modifications: lactam 1-9, N-5
SMILES: CNC(=O)[C@H](Cc1cccnc1)NC(=O)[C@H](CCN)NC(=O)[C@@H]1CCC(=O)NCCCC[C@@H]2NC(=O)CC[C@H](NC(=O)[C@H](CCC(N)=O)NC(=O)[C@H](Cc3c[nH]c4ccccc34)NC(=O)CCNC2=O)C(=O)N[C@@H](Cc2c[nH]c3ccccc23)C(=O)N[C@@H](Cc2ccc3ccccc3c2)C(=O)N[C@@](C)(CC(C)C)C(=O)N1
- % displacement [2]: 100%

Binder: [bLys]TVWQE[AEF][2Nal][αMeL]E[Dab][3Pal]-NH2 (lactam 1-10, N-6) [Compound 12]
- hIL-23 (pSTAT3) antagonist % inhibition [1]: 100%
- % displacement [2]: 104%

B3: Compound 11 (peptide)
peptide: [dDab]TVWQD[AEF][2Nal][αMeL]E[Dab][3Pal]-NH2
modifications: lactam 1-10, N-6
SMILES: CC(C)C[C@]1(C)NC(=O)[C@H](Cc2ccc3ccccc3c2)NC(=O)[C@H](Cc2ccc(OCCN)cc2)NC(=O)[C@@H]2CC(=O)N[C@H](CCNC(=O)CC[C@@H](C(=O)N[C@@H](CCN)C(=O)N[C@@H](Cc3cccnc3)C(N)=O)NC1=O)C(=O)N[C@@H]([C@@H](C)O)C(=O)N[C@@H](C(C)C)C(=O)N[C@@H](Cc1c[nH]c3ccccc13)C(=O)N[C@@H](CCC(N)=O)C(=O)N2
- % displacement [2]: 104%

Binder: [3Amb]SCWQC[AEF][2Nal][αMeL]ER[3Pal]-NH2 (lactam N-10; linker 3-6 via 1,3‑dibromopropan‑2‑one″) [Ref 78]
- hIL-23 (pSTAT3) antagonist % inhibition [1]: 100%
- hIL-23 (pSTAT3) antagonist IC50 [1]: 0.13 nM
- % displacement [2]: 100%

Binder: Ac-KTCWQC[AEF][2Nal][αMeL]E[Dab][3Pal]-NH2 (lactam 1-10; linker 3-6 via 1,3‑dibromopropan‑2‑one″) [Ref 155]
- hIL-23 (pSTAT3) antagonist % inhibition [1]: 100%
- hIL-23 (pSTAT3) antagonist IC50 [1]: 31 pM
- % displacement [2]: 97%

Binder: [4‑Aminomethyl‑phenylacetyl]SCWQC[AEF][2Nal][αMeL]E[Dab][3Pal]-NH2 (lactam N-10; linker 3-6 via 1,3‑dibromopropan‑2‑one″) [Ref 120]
- hIL-23 (pSTAT3) antagonist % inhibition [1]: 101%
- hIL-23 (pSTAT3) antagonist IC50 [1]: 54 pM
- % displacement [2]: 94%

Binder: [4‑Aminomethyl‑phenylacetyl]SCWQC[AEF][2Nal][αMeL]E[Dab]-NH2 (lactam N-10; linker 3-6 via 1,3‑dibromopropan‑2‑one″) [Ref 82]
- hIL-23 (pSTAT3) antagonist % inhibition [1]: 97%
- hIL-23 (pSTAT3) antagonist IC50 [1]: 11 nM
- % displacement [2]: 103%

Binder: [3Amb]SCWQC[AEF][2Nal][αMeL]E[dR]-NH2 (lactam N-10; linker 3-6 via 1,3‑dibromopropan‑2‑one″) [Ref 41]
- hIL-23 (pSTAT3) antagonist % inhibition [1]: 99%
- hIL-23 (pSTAT3) antagonist IC50 [1]: 29 nM
- % displacement [2]: 110%

Binder: [4‑Aminomethyl‑phenylacetyl]SEWQ[Dab][AEF][2Nal][αMeL]E[Dab][3Pal]-NH2 (lactam N-10; bridge 3-6; also: (2c) bridge type not defined) [Ref 122]
- hIL-23 (pSTAT3) antagonist IC50 [1]: 28 pM
- % displacement [2]: 97%

B4: Compound 60 (peptide)
peptide: KIVWQE[AEF][2Nal][αMeL]E[Dab][3Pal]-NHMe
modifications: lactam 1-10, N-6
SMILES: CC[C@H](C)[C@@H]1NC(=O)[C@@H]2CCCCNC(=O)CC[C@@H](C(=O)N[C@@H](CCN)C(=O)N[C@@H](Cc3cccnc3)C(=O)NC)NC(=O)[C@](C)(CC(C)C)NC(=O)[C@H](Cc3ccc4ccccc4c3)NC(=O)[C@H](Cc3ccc(OCCN)cc3)NC(=O)[C@H](CCC(=O)N2)NC(=O)[C@H](CCC(N)=O)NC(=O)[C@H](Cc2c[nH]c3ccccc23)NC(=O)[C@H](C(C)C)NC1=O
- hIL-23 (pSTAT3) antagonist % inhibition [1]: 101%
- hIL-23 (pSTAT3) antagonist IC50 [1]: 0.63 nM
- % displacement [2]: 95%

Binder: [4‑Aminomethyl‑phenylacetyl]SCWQC[AEF][2Nal][αMeL]E[dR]-NH2 (lactam N-10; linker 3-6 via 1,3‑dibromopropan‑2‑one″) [Ref 80]
- hIL-23 (pSTAT3) antagonist % inhibition [1]: 97%
- hIL-23 (pSTAT3) antagonist IC50 [1]: 11 nM
- % displacement [2]: 98%

Binder: [4‑Aminomethyl‑phenylacetyl]SCWQC[AEF][2Nal][αMeL]ER-NH2 (lactam N-10; linker 3-6 via 1,3‑dibromopropan‑2‑one″) [Ref 52]
- hIL-23 (pSTAT3) antagonist % inhibition [1]: 103%
- hIL-23 (pSTAT3) antagonist IC50 [1]: 7.8 nM
- % displacement [2]: 100%

B5: Compound 43 (peptide)
peptide: KWQE[AEF][2Nal][αMeL]E[Dab][3Pal]-NHMe
modifications: lactam 1-8, N-4
SMILES: CNC(=O)[C@H](Cc1cccnc1)NC(=O)[C@H](CCN)NC(=O)[C@@H]1CCC(=O)NCCCC[C@@H]2NC(=O)CC[C@H](NC(=O)[C@H](CCC(N)=O)NC(=O)[C@H](Cc3c[nH]c4ccccc34)NC2=O)C(=O)N[C@@H](Cc2ccc(OCCN)cc2)C(=O)N[C@@H](Cc2ccc3ccccc3c2)C(=O)N[C@@](C)(CC(C)C)C(=O)N1
- % displacement [2]: 100%

Binder: [4‑Aminomethyl‑phenylacetyl][NMeS]CWQC[AEF][2Nal][αMeL]E[Dab]-NH2 (lactam N-10; linker 3-6 via CH2COCH2) [Ref 141]
- % displacement [2]: 102%

B6: Compound 41 (peptide)
peptide: [(N3)‑K]TWQ[Pra][AEF][2Nal][αMeL]E[Dab][3Pal]-NHMe
modifications: lactam 1-9; triazole (positions not given here); not fully specified (bridges); printed as [(N₃)-K](1c)(6g)^{†}TWQ[Pra](6g)[Y(2-aminoethoxy)][2-Nal][2-Me-Leu]E(1c)[Dab][3-(3-Pyridyl)-Ala]-[NHMe]
- % displacement [2]: 98%

B7: Compound 42 (peptide)
peptide: XTWQXXXXEXX
modifications: not fully specified; [{d}(N3)-K](1c)(6g)^†TWQ[Hpg](6g)[Y(2-aminoethoxy)][2-Nal][2-Me-Leu]E(1c)[Dab][3-(3-Pyridyl)-Ala]-[NHMe]; (1c) [2,11] lactam; (6g) [2,7] 1,4-disubstituted 1,2,3-triazole bridge; ^† alpha-amine converted into an azide in bridge
- % displacement [2]: 96%
